This is an account of results in publication PMC7498053.

For the experiment, the target named is RNA polymerase II (Pol II) immunopurified from HeLa cell nuclear extracts (human (endogenous in HeLa)) (UniProt P24928). Description: negative stain electron microscopy; minimal PIC (DNA/TBP/TFIIA/TFIIB/Pol II/TFIIF) assembled sequentially on biotinylated promoter DNA, GST-ORF24-NTD added last; purified on streptavidin beads, eluted with EcoRI, cross-linked with 0.05% glutaraldehyde; 2D and 3D classification and difference maps, ~20 A.

As to “GST-ORF24-NTD (KSHV ORF24 residues 1-201 with an N-terminal GST tag) (domain or fragment)”, the percent of PIC particle images with extra density worked out at 25%.
